Paper PMC8037807, “The Effect of Oxidized Dopamine on the Structure and Molecular Chaperone Function of the Small Heat-Shock Proteins, αB-Crystallin and Hsp27” (International Journal of Molecular Sciences, 2021)

Legend:
[1] = biological target: the molecule itself; assay: cross-linking; 15 μM αBc or Hsp27 incubated with 15 or 75 μM DA in 50 mM phosphate, 150 mM NaCl, pH 7.4, 24 h, 37 °C, aerobic; excess DAox removed (10 kDa filter); SDS-PAGE with DTT and boiling
[2] = biological target: the molecule itself; assay: negative-stain transmission electron microscopy; 30 μM αBc or Hsp27 incubated with 0 or 150 μM DAox; particle diameters measured
[3] = biological target: the molecule itself; assay: cross-linking; lysine-dimethylated and non-methylated sHsps reacted with a 0, 1, 5, 7.5, 10 or 20 molar excess of DA, 37 °C, 24 h, 50 mM phosphate buffer, pH 7.4; SDS-PAGE, monomer band quantified

B1: oxidized dopamine-modified αB-crystallin (natural protein, human, UniProt P02511 1-175, looked up)
chain: MDIAIHHPWIRRPFFPFHSPSRLFDQFFGEHLLESDLFPTSTSLSPFYLRPPSFLRAPSWFDTGLSEMRLEKDRFSVNLDVKHFSPEELKVKVLGDVIEVHGKHEERQDEHGFISREFHRKYRIPADVDPLTITSSLSSDGVLTVNGPRKQVSGPERTIPITREEKPAVTAAPKK
modifications: modified and covalently cross-linked by oxidized dopamine (DAox); lysine residues involved in the cross-links; sites not mapped
notes: αB-crystallin (HspB5), human small heat-shock protein; monomeric subunit mass 20.2 kDa; same protein as m1; Made at several molar ratios of αBc to DA (1:1, 1:5, 1:10, 1:20, 1:30); All ratios are kept as one molecule; the ratio is named in each row; also called αBc:DAox; DAox-modified αBc
B1: binds [1].

B2: αB-crystallin (natural protein, human, UniProt P02511 1-175, looked up)
chain: B1 chain
notes: αB-crystallin (HspB5), human small heat-shock protein; monomeric subunit mass 20.2 kDa; Lys174 and Lys175 at the extreme C-terminus; Heterogeneous large oligomer in solution; also called HspB5; native αBc; source: expressed and purified as previously described [9,40,41]
B2: binds [2].

B3: methylated αBc reacted with DAox (natural protein, human, UniProt P02511 1-175, looked up)
chain: B1 chain
modifications: dimethylation of all lysine residues (and the amino terminus), confirmed by mass spectrometry; then modified by oxidized dopamine (DAox)
notes: αB-crystallin (HspB5), human small heat-shock protein; same protein as m1; Reacted with a 0, 1, 5, 7.5, 10 or 20 molar excess of DA; also called lysine-dimethylated αBc
B3: binds [3].
